Experimental findings from patent publication US8309523 (VIB VZW, dated 2012) are described below.

Substitutions are numbered along the chain they refer to.

Assay in all cases: bio-IP from HEK293T cells, anti-TRAF6 immunoblot
The target of assay [1] is T1, p76 T6Ig-m (E313A/E316A) (human, UniProt Q9UDY8 150-824, Avi-tag biotinylated in vivo by co-expressed BirA).
T1 construct: domain: p76 cleavage fragment
T1 sequence (looked up): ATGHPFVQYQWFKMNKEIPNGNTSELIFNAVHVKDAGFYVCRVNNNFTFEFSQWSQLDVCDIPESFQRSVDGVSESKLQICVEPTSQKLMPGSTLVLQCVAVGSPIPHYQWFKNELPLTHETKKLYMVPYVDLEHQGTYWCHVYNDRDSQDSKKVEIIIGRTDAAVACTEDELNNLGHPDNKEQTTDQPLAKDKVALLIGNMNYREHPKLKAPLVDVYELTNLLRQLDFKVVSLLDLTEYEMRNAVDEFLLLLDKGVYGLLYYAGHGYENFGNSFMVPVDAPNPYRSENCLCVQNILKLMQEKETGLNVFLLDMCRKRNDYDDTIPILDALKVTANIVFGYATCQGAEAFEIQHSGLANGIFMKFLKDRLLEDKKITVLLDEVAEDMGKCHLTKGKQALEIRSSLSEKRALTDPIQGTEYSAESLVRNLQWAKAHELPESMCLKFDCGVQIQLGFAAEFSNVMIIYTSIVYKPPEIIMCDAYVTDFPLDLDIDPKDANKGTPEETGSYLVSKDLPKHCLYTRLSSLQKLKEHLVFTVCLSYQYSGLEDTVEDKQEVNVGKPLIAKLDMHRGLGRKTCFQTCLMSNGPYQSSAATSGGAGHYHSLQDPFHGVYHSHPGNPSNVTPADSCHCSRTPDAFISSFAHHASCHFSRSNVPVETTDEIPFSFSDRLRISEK
The text has this: (§1) FIG. 5: p76 activates NFκB via TRAF6. […] Panel B) TRAF6 mediates NFκB signaling by p76. Top: NFκB-reporter assays of HEK293T cells transiently expressing MALT1, p76 and mutants or MALT1-C. Bottom: MALT1, p76 or MALT1-C, transiently expressed in HEK293T cells, were purified via bio-IPs and immunoblotted with anti-MALT1 (to show equal expression), anti-TRAF6 and anti-BCL10. Panel C) p76 induces polyubiquitination of IKKγ. Immunoblot analysis of bio-IP and IKKγ-IP of 293T cells transfected with pcD-F-IKKγ and pcd-HA-Ub in combination with indicated Avi-tagged MALT1 constructs. Panel D) BCL10 is not involved in NFκB signaling by p76. NFκB reporter assays of HEK-293T cells transfected with siRNA duplexes against MALT1, BCL10 or GFP (as control) followed by transient transfection with p76. The expression levels were determined by immunoblot with anti-MALT1 and anti-BCL10. NFκB-dependent luciferase activity […] is shown as fold induction of vector-transfected cells and represents the mean+/−S.D. of three independent experiments.
(§2) NFκB activation by MALT1 requires TRAF6 binding via two distinct sites (19), which are both present in the p76 cleavage fragment. Mutation of one TRAF6 binding site, either E313A/E316A (T6Ig-m) or E806A (T6C-m), abolished the potential of p76 to activate NFκB signaling in 293T cells (FIG. 5, Panel B). […] Furthermore, NFκB activation by p76 in 293T cells was associated with increased polyubiquitination of IKKγ (FIG. 5, Panel C).

In assay [2] the target is T2, MALT1 (wild type, Flag- and Avi-tagged bio-construct) (human, UniProt Q9UDY8 1-824, Avi-tag biotinylated in vivo by co-expressed BirA).
T2 construct: also called paracaspase; bio-IP purified MALT1
T2 sequence (looked up): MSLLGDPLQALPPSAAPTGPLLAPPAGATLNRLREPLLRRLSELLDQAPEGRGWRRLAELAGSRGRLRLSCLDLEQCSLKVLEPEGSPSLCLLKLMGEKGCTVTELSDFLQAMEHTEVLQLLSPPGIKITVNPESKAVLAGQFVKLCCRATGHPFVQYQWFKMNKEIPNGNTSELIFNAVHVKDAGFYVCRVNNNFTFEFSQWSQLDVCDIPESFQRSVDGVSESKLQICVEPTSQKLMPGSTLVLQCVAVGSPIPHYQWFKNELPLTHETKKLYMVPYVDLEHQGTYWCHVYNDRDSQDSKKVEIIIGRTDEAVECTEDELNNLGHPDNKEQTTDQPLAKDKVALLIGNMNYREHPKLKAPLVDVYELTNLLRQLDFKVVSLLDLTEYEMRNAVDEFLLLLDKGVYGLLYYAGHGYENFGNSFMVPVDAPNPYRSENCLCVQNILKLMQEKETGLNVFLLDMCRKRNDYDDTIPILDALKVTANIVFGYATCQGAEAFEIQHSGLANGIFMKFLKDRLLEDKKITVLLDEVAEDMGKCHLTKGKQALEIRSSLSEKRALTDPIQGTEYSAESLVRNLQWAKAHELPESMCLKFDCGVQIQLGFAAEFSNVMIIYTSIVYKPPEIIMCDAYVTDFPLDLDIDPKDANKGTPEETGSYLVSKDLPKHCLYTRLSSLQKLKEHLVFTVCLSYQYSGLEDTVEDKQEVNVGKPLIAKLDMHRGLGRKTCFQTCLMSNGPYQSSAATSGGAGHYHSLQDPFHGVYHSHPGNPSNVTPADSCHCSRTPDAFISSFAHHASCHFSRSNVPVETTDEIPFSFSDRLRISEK
Source text: as §1, §2

In assay [3] the target is T3, p76 T6Ig/C-m (E313A/E316A and E806A) (human, UniProt Q9UDY8 150-824, Avi-tag biotinylated in vivo by co-expressed BirA).
T3 construct: domain: p76 cleavage fragment
T3 sequence (looked up): T1 sequence (looked up) with E657A
Source text: as §1, §2

B1: TRAF6 (other, UniProt Q9Y4K3 1-522, looked up)
chain: MSLLNCENSCGSSQSESDCCVAMASSCSAVTKDDSVGGTASTGNLSSSFMEEIQGYDVEFDPPLESKYECPICLMALREAVQTPCGHRFCKACIIKSIRDAGHKCPVDNEILLENQLFPDNFAKREILSLMVKCPNEGCLHKMELRHLEDHQAHCEFALMDCPQCQRPFQKFHINIHILKDCPRRQVSCDNCAASMAFEDKEIHDQNCPLANVICEYCNTILIREQMPNHYDLDCPTAPIPCTFSTFGCHEKMQRNHLARHLQENTQSHMRMLAQAVHSLSVIPDSGYISEVRNFQETIHQLEGRLVRQDHQIRELTAKMETQSMYVSELKRTIRTLEDKVAEIEAQQCNGIYIWKIGNFGMHLKCQEEEKPVVIHSPGFYTGKPGYKLCMRLHLQLPTAQRCANYISLFVHTMQGEYDSHLPWPFQGTIRLTILDQSEAPVRQNHEEIMDAKPELLAFQRPTIPRNPKGFGYVTFMHLEALRQRTFIKDDTLLVRCEVSTRFDMGSLRREGFQPRSTDAGV
notes: Co-precipitated from lysates of human cell lines
For the molecule B1, the binding result in assay [1] is “binds”; in assay [2] it was “binds”; in assay [3] it was “no binding”.
